Assay results: the supplement of paper PMC10567573

B1: ZNF263 (parent)
chain: QPKKLHLCPLCGKNFSNNSNLIRH
B2: FAM164C (parent)
chain: YPHCTGISQQDPESDSQGQGNGLF

Variants of: B1
Test: protein stability index of a GFP-peptide fusion (GPS, HEK-293T) (PSI 1-6); higher = more stable
Settings: c terminus: a fixed tail appended
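Also: lentivirally expressed fusions sorted by FACS into six bins by GFP to DsRed ratio, PSI derived from sequencing read proportions per bin multiplied by bin number.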

Protein stability index: each site, then its substitutions
G12: Q 2.53 | K 2.13 | I 2.44 | P 2.3 | A 2.27 | S 1.99 | E 2 | Y 2.68 | T 3.13 | C 2.47
F15: Q 1.89 | K 2.06 | R 2.61 | A 2.03 | N 2.45 | Y 2.46
K13: A 3.12 | M 2.69 | Y 2.91 | E 2.29 | Q 2.11 | W 1.8 | N 2.77 | P 1.82
P2: Y 1.89 | W 2.14 | V 2.3 | F 2.44 | I 2.43 | S 2.53 | N 2.31 | E 2.59
P9: S 2.52 | K 2.63 | M 2.31 | H 2.38 | Y 2.61 | W 2.4 | V 2.1 | E 2.56 | A 2.43 | N 2.4
H6: F 2.44 | N 2.14 | C 1.99 | W 2.05 | R 2.32 | S 1.71 | E 2.38 | D 2.95
N14: T 2.97 | Q 3.1 | P 2.61 | H 3.06 | E 3.52 | D 2.08
C11: E 3.18 | I 2.16 | R 2.83 | A 3.13 | G 2.56 | W 1.74
N18: K 2.31 | P 3.28 | W 2.73 | S 2.39 | M 2.5 | H 2.82 | C 2.48 | G 1.8 | I 2.33
S16: V 2.05 | W 2.09 | T 2.21 | I 2.36 | C 2.57 | F 2.48 | Y 2.6 | E 2.62 | Q 2.44
Q1: S 2.39 | M 2.6 | T 2.5 | E 3.16 | L 2.4 | F 2.21 | H 2.69 | R 2.47 | Y 2.23 | V 2.12
I22: V 2.73 | D 2.86 | Y 2.69 | S 2.55 | W 1.79 | F 2.47 | G 1.98
K3: Q 2.52 | D 2.94 | N 2.83 | F 2.83 | M 2.78
L21: I 2.47 | G 2.62 | N 2.44 | R 2.64 | H 2.83 | A 2.56 | K 2.87
N17: C 2.33 | H 2.43 | Y 2.23 | R 2.07 | P 2.33 | Q 2.42 | M 2.26 | I 2.25 | S 2.66 | K 2.28
H24: E 2.43 | A 1.74 | Q 2.43 | Y 2.61 | F 2.44 | G 2.43 | C 1.84
N20: E 3.42 | W 1.57 | P 2.49 | T 2.94 | Q 4.04 | G 2.46 | A 3.25 | D 4 | K 3 | Y 2.56 | F 1.57 | M 2.54
R23: A 3.08 | N 2.96 | S 2.78 | P 2.93 | E 3.06 | G 2.65 | W 1.76
K4: F 2.17 | T 2.75 | A 2.19 | M 2.53 | G 2.63 | D 3 | Y 2.44 | E 3.36 | W 2.47 | V 2.62 | H 2.49 | P 2.69
L5: R 2.37 | D 3.25 | K 2.67 | S 2.39 | I 2.64 | N 2.13 | C 2.02 | T 1.71 | V 3.02
S19: P 1.77 | T 2.75 | W 2.67 | I 2.58 | H 2.55
L10: D 3.78 | S 4.12 | H 3.56 | Q 2.91 | V 2.96 | G 2.87 | R 3.32 | P 2.62 | I 2.83 | K 3.44 | E 3.47 | W 2.38
L7: T 2.74 | H 2.46 | R 2.72 | I 3.56 | N 2.18 | S 2.1 | K 2.88 | V 3.04
C8: H 2.38 | Q 2.71 | A 2.83 | G 2.85 | W 1.97 | D 2.4 | R 2.56 | P 2.82

Variants of: B2
Test: as above
Settings: c terminus: a fixed tail appended

Protein stability index of substitutions, site by site:
P2: C 2.45 | L 3.96 | R 4.71 | K 4.51 | D 5.09 | W 3.67 | A 3.57 | H 2.9 | T 3.35 | F 3.86 | M 4.07 | N 4.54 | V 1.91 | E 5.31 | Q 3.58 | Y 4.22 | G 4.47 | S 4.65 | I 2.83
S8: A 3.51 | C 3.11
I7: Q 4.01 | F 2.21 | W 1.51 | M 3.38 | L 3.9 | A 4.04 | D 4.45 | C 3.56 | T 3.95 | Y 2.64 | S 3.86 | V 3.82 | P 4.18 | N 4.11 | H 4 | K 3.56 | R 3.94 | E 4.68 | G 3.83
Y1: R 4.63 | P 5.37 | T 5.38 | E 5.25 | D 5.46 | S 5.39 | F 3.49 | I 5.14 | V 5.07 | G 5.44 | H 4.85 | M 5.4 | A 5.44 | N 5.28 | L 5.44 | Q 5.36 | C 4.29 | K 5.28 | W 4.43
H3: R 3.6 | F 4 | N 4.09 | I 4.18 | V 4.34 | G 3.39 | A 3.75 | K 3.9 | L 3.37 | W 3.22 | T 4.12 | D 4.48 | E 4.58 | C 3.1 | S 3.07 | P 3.32 | Q 3.29 | Y 3.2 | M 3.46
C4: K 4.39 | H 4.24 | E 4.82 | W 2.75 | N 4.25 | I 3.72 | Q 4.53 | P 3.37 | T 4.32 | R 4.06 | D 5.02 | Y 3.17 | F 3.58 | A 3.92 | S 4.16 | L 4.36 | G 3.5 | M 4.36 | V 4.07
T5: Q 3.89 | N 3.32 | V 3.18 | I 3.34 | D 4.6 | L 2.35 | M 2.23 | F 2.32 | Y 3.17 | P 3.25 | H 3.2 | R 2.71 | E 4.49 | A 3.46 | C 1.9 | S 3.53 | W 1.68 | K 3.55 | G 2.93
G6: K 3.23 | L 3.25 | D 4.23 | A 3.53 | Q 3.58 | F 3.01 | N 3.56 | R 3.45 | S 3.82 | H 3.62 | M 3.34 | P 2.25 | T 3.51 | Y 2.77 | C 2.46 | E 4.46 | V 4.17 | W 2.87 | I 3.25
